pKd: −log10 of the molar value.
Biological target: GST-human NOGO-A56 (human) [GST: P08515]
Experiment: SPR (Biacore 3000), GST-human NOGO-A56 on CM5, antibody as analyte; single experiment

Chain of GST-human NOGO-A56 (human) [GST: P08515] (P08515 1-218, tags or fused parts left off): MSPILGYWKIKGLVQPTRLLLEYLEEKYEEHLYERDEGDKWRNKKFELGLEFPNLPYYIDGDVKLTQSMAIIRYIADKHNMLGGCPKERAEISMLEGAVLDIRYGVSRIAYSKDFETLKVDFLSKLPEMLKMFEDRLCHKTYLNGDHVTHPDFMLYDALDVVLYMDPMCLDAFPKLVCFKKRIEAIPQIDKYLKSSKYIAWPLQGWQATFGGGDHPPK

pKd: 10.24
koff: 8.25e-05 s⁻¹
kon: 1.44e+06 M⁻¹ s⁻¹
Substance: 11C7 (chimeric version) (antibody)

From patent publication US20060029603A1
